Experimental findings from article PMC4854285 are described below.

In the experiment the target is biotinylated peptide composed of residues 656-683 of the gp41 MPER (RRR-…-RRK-biotin) (HIV-1). In words: SPR. In general terms: In SPR one partner is held on a chip, and binding of the other changes the refractive index at the surface.

For the substance 10E8 antigen-binding fragment (Fab), the Kd is 17 nM.

As usually defined, the Kd is the free concentration of one partner at which half of the binding sites on the other are occupied at equilibrium, for simple one-to-one binding.
